From paper PMC9164213 (Nature, 2021)

B1: GsuCas4/Cas1 (Geobacter sulfurreducens type I-G Cas4/Cas1 natural fusion), tag cleaved (natural protein)
chain: MAETDGSIPLIPVRMLNEHVYCPRLAYLMWVQGEFSHNEFTVDGVIRHRRVDAGGGVLPSETQEDSRIHARSVSLSSERLGITAKIDLVEGEGAYVSPVDYKRGKRPHVAGGAYEPERVQLCAQGLLLREHGFASDGGALYFVASRERVPVAFDDELIGRTLAAIDEMGRTALSGTMPPPLEDSPKCPRCSLVGICLPDEVRFLSHLSVEPRPIIPADGRGLPLYVQSPKAYVRKDGDCLVIEEERVRVAEARLGETSQVALFGNATLTTAALHECLRREIPVTWLSYGGWFMGHTVSTGHRNVETRTYQYQRSFDPETCLNLARRWIVAKIANCRTLLRRNWRGEGDEAKAPPGLLMSLQDDMRHAMRAPSLEVLLGIEGASAGRYFQHFSRMLRGGDGEGMGFDFTTRNRRPPKDPVNALLSFAYAMLTREWTVALAAVGLDPYRGFYHQPRFGRPALALDMMEPFRPLIADSTVLMAINNGEIRTGDFVRSAGGCNLTDSARKRFIAGFERRMEQEVTHPIFKYTISYRRLLEVQARLLTRYLSGEIPAYPNFVTR
B2: GsuCas2 (Geobacter sulfurreducens Cas2), tag cleaved (natural protein)
chain: MEHLYIVSYDIRNQRRWRRLFKTMHGFGCWLQLSVFQCRLDRIRIIKMEAAINEIVNHAEDHVLILDLGPAENVKPKVSSIGKTFDPILRQAVIV

Molecular target: the molecule itself
Assay: cryo-EM structure

Protein	stoichiometry N
B1	2
B2	2
